Our source for the response, other: percentage of L-TGF-β+ (anti-HA+) subset and Kd values is paper PMC9411592.

In general, Kd refers to the concentration at which binding is half-saturated.

Where two headings read alike, the source gives them in different places.

Experiment [1] addresses N-terminal Flag-tagged LRRC33 with its C-terminal transmembrane domain substituted with that of GARP (WT). Briefly: flow cytometry on cells. The note with it: for response: n = 3, mean ± s.d., read off a plot.
Experiment [2] shares this target. As to the kind of experiment: flow cytometry on cells. Particulars: n = 3, mean ± s.d., read off a plot. (A flow cytometer gives signals particle by particle.)
Experiment [3] deals with L-TGF-β1 WT with the furin cleavage site between LAP and the growth factor replaced with an HA tag (UniProt P01137). Briefly: flow cytometry on cells.
The target in experiment [4] is L-TGF-β1 C4S/R249A (the 'WT' of the SPR assay) (human). As to the kind of experiment: SPR; Biacore T200, 25 °C; L-TGF-β1 (C4S/R249A, or + RGEGATG) immobilised on a CM5 chip by amine coupling; integrin headpieces injected at 20 μl/min in 20 mM HEPES pH 7.5, 150 mM NaCl, 1 mM MgCl2, 1 mM CaCl2; 1:1 Langmuir model. Background: SPR reads the build-up and loss of mass on a sensor chip optically.

Where [5] appears, read: Expi293F cells co-transfected with L-TGF-β1 and LRRC33, anti-HA staining.

With “L-TGF-β1 WT with the furin cleavage site between LAP and the growth factor replaced with an HA tag (from UniProt P01137) I300L”, the response in experiment [1] (parent: est. 21000) is 16000 MFI.
Still for that read-out and setting: under “L-TGF-β1 WT with the furin cleavage site between LAP and the growth factor replaced with an HA tag (from UniProt P01137) P296A” stands 16000 MFI; under “L-TGF-β1 WT with the furin cleavage site between LAP and the growth factor replaced with an HA tag (from UniProt P01137) K309R”, 15000 MFI.
Same read-out and setting: under “L-TGF-β1 WT with the furin cleavage site between LAP and the growth factor replaced with an HA tag (from UniProt P01137) L303A” stands 26000 MFI; under “L-TGF-β1 WT with the furin cleavage site between LAP and the growth factor replaced with an HA tag (from UniProt P01137) Q306T”, 13000 MFI.
“L-TGF-β3 WT with HA tag in place of the furin cleavage site (from UniProt P10600) T336K; L344H” came in with an other: percentage of L-TGF-β+ (anti-HA+) subset in experiment [1] of 14.4%. The response in experiment [2] (parent: est. 2700) was found to be 4000 MFI.
Regarding “N-terminal Flag-tagged LRRC33 with its C-terminal transmembrane domain substituted with that of GARP (WT) Y174R”, the other: percentage of L-TGF-β+ (anti-HA+) subset in experiment [3] (setting [5]) came to 23.1%. In addition, the response in experiment [3] (Expi293F cells, n = 3, mean ± s.d., parent: est. 22000, read off a plot) was determined as 4000 MFI.
In experiment [1], “L-TGF-β1 WT with the furin cleavage site between LAP and the growth factor replaced with an HA tag (from UniProt P01137) H317I” showed an other: percentage of L-TGF-β+ (anti-HA+) subset of 9.58%. For the same substance, the response in experiment [1] (parent: est. 21000) came out at 2800 MFI; in experiment [2] (parent: est. 21000), 3600 MFI.
On to “L-TGF-β1 WT with the furin cleavage site between LAP and the growth factor replaced with an HA tag (from UniProt P01137) Y307H”, for which the response in experiment [1] (parent: est. 21000) was 28000 MFI.
With “L-TGF-β1 WT with the furin cleavage site between LAP and the growth factor replaced with an HA tag (from UniProt P01137) W301R”, in experiment [1] (parent: est. 21000), the response is 14000 MFI.
With “integrin αVβ8-6DLL headpiece (the disulfide-linked loop of β8 substituted by that of β6) (complex)”, in experiment [4], the Kd worked out at 19.8 nM.
“L-TGF-β3 WT with HA tag in place of the furin cleavage site (from UniProt P10600) R328W; T336K; L344H” came in with an other: percentage of L-TGF-β+ (anti-HA+) subset in experiment [1] of 21.5%. For the same substance, the response in experiment [2] (parent: est. 2700) was 5500 MFI.
Consider “L-TGF-β1 WT with the furin cleavage site between LAP and the growth factor replaced with an HA tag (from UniProt P01137) L303S”, for which, in experiment [1] (parent: est. 21000), the response is 25000 MFI.
In turn, “L-TGF-β1 WT with the furin cleavage site between LAP and the growth factor replaced with an HA tag (from UniProt P01137) W301R; K309T; H317L” came in with an other: percentage of L-TGF-β+ (anti-HA+) subset in experiment [1] of 12.3%. Moreover, the response in experiment [2] (parent: est. 21000) is 3500 MFI.
With “L-TGF-β1 WT with the furin cleavage site between LAP and the growth factor replaced with an HA tag (from UniProt P01137) W301A”, in experiment [1] (setting [5]), the other: percentage of L-TGF-β+ (anti-HA+) subset was 28.7%. For the same substance, the response in experiment [1] (Expi293F cells, parent: est. 22000) worked out at 5300 MFI.
For the substance “αVβ8-IgG1 Fc (heterotetramer of αVβ8 linked by the IgG1 Fc fragment on the C-terminus of β8) (Fc fusion)”, the Kd in experiment [4] turned out to be 5.75 nM.
In experiment [1], “L-TGF-β2 WT with HA tag in place of the furin cleavage site (from UniProt P61812) I350H” showed an other: percentage of L-TGF-β+ (anti-HA+) subset of 44.6%. The response in experiment [2] (parent: est. 2800) was 11000 MFI.
Take “L-TGF-β1 WT with the furin cleavage site between LAP and the growth factor replaced with an HA tag (from UniProt P01137) K309T”: in experiment [1] (parent: est. 21000), the response amounted to 5500 MFI.
Same read-out and setting: next, “L-TGF-β1 WT with the furin cleavage site between LAP and the growth factor replaced with an HA tag (from UniProt P01137) H317L”: 6000 MFI.
For the substance “L-TGF-β1 WT with the furin cleavage site between LAP and the growth factor replaced with an HA tag (from UniProt P01137) K309T; H317L”, the other: percentage of L-TGF-β+ (anti-HA+) subset in experiment [1] was found to be 15.2%. In addition, the response in experiment [2] (parent: est. 21000) came out at 3400 MFI.
